Reference: patent US20250027090, “MIRROR-IMAGE SELECTION OF L-NUCLEIC ACID APTAMERS” (Tsinghua University, published 2025)

Biological target: thrombin (native human beta-thrombin) (Homo sapiens, UniProt P00734;P00734 P00734:328-363,P00734:364-622)
Test: ITC; physiological buffer pH 7.4, 25 C

B1: D-6 aptamer (ssDNA)
DNA: CGGATCCAGTTACGGACTGAACAGAAGGGTGGTGTGGTTGGACTGTTCATTCAGTAAGCTTCGG
Q: For B1, which Kd is on record?
A: Its Kd is 27 nM.
